Laboratory results taken from the supplement of paper PMC12764529.
± gives the half width of the 95% confidence interval.

assay: folding stability dG unfold from chymotrypsin proteolysis; higher = more stable
Method in brief: (§1)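 K50 was inferred by Bayesian fitting of sequencing counts obtained after protease digestion of designed mini-proteins. Unfolding free energy was derived by comparison with a sequence-predicted unfolded-state K50 and a shared folded-state K50, for each protease or both combined. The mini-proteins were under 80 residues, had no cysteine, were carried in a PA-tagged cDNA display construct, and were kept only if AlphaFold2 dimer inter-PAE exceeded 15.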

**Q.** With “SAGMKTLEKTGSAAKIEEAIAAGKSLEEVFETAGKDGGTSRTLTEPNRTLTFSGETSKPGVATLTTIPESAG [r5_343_JUSTAS]” as the sequence, how does the “folding stability dG unfold” value read?
**A.** The value was 1.17 ± 0.753 kJ/mol.

**Q.** With “SAGGSAGGSGMTLEEIAERLKEEYNAPEVKVTRDPSKPVYTVTVTLADGSTKTYTIYVPEELGSAGGSAGGS [r12_114_JUSTAS]” as the sequence, how does the “folding stability dG unfold” value read?
**A.** The value was 15.6 ± 0.213 kJ/mol.

**Q.** Which “folding stability dG unfold” value does the source give for “SAGGMTLEITFPPNVKKVRVEFDEETNEVKVEVEEVDGELVIRVEVPPGQELSEEELERLKKLLEELSAGGS [r16_359_TrROS_Hall]” here?
**A.** The value was 7.49 ± 0.301 kJ/mol.

**Q.** Which “folding stability dG unfold” value does the source give for “SAGGSAGKKPVEFKVKIMIFNPENGDMYMIEMTITIDPDGQIKIKIKLPDPPRLPPGMVIFIMVYISAGGSA [r15_488_TrROS]” here?
**A.** The value was 21.9 ± 0.356 kJ/mol.

**Q.** For “SAGGSAGGSAKAKIKKVEVEKEGDKLRVTAEIELEDGYVLKVSFEFKDDEIKMEIEIVPLKDSAGGSAGGSA [r18_79_TrROS_Hall]”, which “folding stability dG unfold” value is on record?
**A.** Its value is 14.2 ± 1.21 kJ/mol.

**Q.** For “SAGGPPVTLTLTLTFTETRTVRNPATGETVTVEKVTLTLTITLEPGMSKEQLEALLKELRELFPSLESAGGS [r8_306_TrROS_Hall]”, which “folding stability dG unfold” value is on record?
**A.** The value was 21.5 ± 1.17 kJ/mol.

**Q.** With “SAGGSAGGSAGGPKVEIVEVTVEGDKVTIRVKNEETGEWVTLEVTLKDLPKVTFVLKPKSAGGSAGGSAGGS [r10_655_TrROS_Hall]” as the sequence, how does the “folding stability dG unfold” value read?
**A.** Its value is 4.86 ± 0.795 kJ/mol.

**Q.** Which “folding stability dG unfold” value does the source give for “SAGGSAGGSAKVTYTENSVTIHAKVPEKPLKIEIPNTGKVVTIDLDKEVTVTFPVPKPPDESAGGSAGGSAG [r3_185_TrMRF]” here?
**A.** Its value is -1.9 ± 0.418 kJ/mol.

**Q.** With “SAGGGPEEIRRAAEALAAELAAELGLEVVEVEVEVREDGTVTVRITVRLPDGSKLEITLTLPAGAPLSAGGS [r8_175_TrROS_Hall]” as the sequence, how does the “folding stability dG unfold” value read?
**A.** Its value is 4.79 ± 0.159 kJ/mol.

**Q.** Which “folding stability dG unfold” value does the source give for “SAGSLEKVTESSTSSDKVEVTTTTLTPLSNPSVPVQYVKTTTTTTLIDPATGKTLSTTTTTTTTPLPAASAG [r5_300_JUSTAS]” here?
**A.** Its value is 0.418 ± 0.795 kJ/mol.

**Q.** For “SAGGSAGGSEVKVLVYPPKGPPRLFADDVPIETLVAQFTAEDPPEPLVLVTKEEAEKLGFPLESAGGSAGGS [r12_379_TrMRF]”, which “folding stability dG unfold” value is on record?
**A.** Its value is 0.629 ± 0.586 kJ/mol.

**Q.** With “SVFEMPIKLTLKRRDPDGKGRKVKVTIRIRFEMPPNLPPDDKNDPERRKMHQMMHSNMHERAESLADPLASA [r9_237_TrROS]” as the sequence, how does the “folding stability dG unfold” value read?
**A.** The value was 6.68 ± 1.51 kJ/mol.

**Q.** Which “folding stability dG unfold” value does the source give for “SAGGKEKKKEKEEKKKKPKPKFIKIKLSPEELLKLAKELPNIDRIFVEVDGKLYEFDAKTGKIVEVDSAGGS [r16_214_TrROS_Hall]” here?
**A.** Its value is 10 ± 0.335 kJ/mol.

**Q.** With “SAGGMKIKVTVEVTFPDGTVRTFPVPDATSEEEVRAILAERGFGDLADVPIRITEREPVPAVPPEELLSAGG [r13_493_JUSTAS]” as the sequence, how does the “folding stability dG unfold” value read?
**A.** Its value is 7.35 ± 0.18 kJ/mol.

**Q.** For “SAGGSAGGSAGGGPSSMVTVETKEELLTLPNGEKLIKTTTTTKTPTATTTTTTVLPAELLSAGGSAGGSAGG [r7_682_JUSTAS]”, which “folding stability dG unfold” value is on record?
**A.** Its value is 2.35 ± 0.285 kJ/mol.

**Q.** Which “folding stability dG unfold” value does the source give for “SAGGSADENKKPMYFIMVKIEIKFGGKDHKIEIMIPLDNVEKLAKNIAEELGMEIKDVTVSLYPIDSAGGSA [r15_535_TrROS]” here?
**A.** The value was 17.5 ± 0.502 kJ/mol.

**Q.** Which “folding stability dG unfold” value does the source give for “SAGGIKEFADTLQDHGGTVTVEPVNNGSLKVSIQHRDPEDGRMYRMEIEIPPENNKLEIDDWEPYPNSAGGS [r16_613_TrROS]” here?
**A.** The value was 1.3 ± 1.13 kJ/mol.

**Q.** With “SAGGRAEEFATFLAELLRALLPPGEKVRATAVVTPEGVVVRVEHPLGFVAEALVKGDKLVRLELRPVSAGGS [r8_287_TrMRF]” as the sequence, how does the “folding stability dG unfold” value read?
**A.** Its value is 16 ± 0.377 kJ/mol.

**Q.** With “SAGGPMYIVIKVEVWNPDNGKKREINIVIPIPPGMTPEQMLEKAKELARTIAEENGYEVRIDEIHIFSAGGS [r8_312_TrROS]” as the sequence, how does the “folding stability dG unfold” value read?
**A.** The value was 11.97 ± 0.0837 kJ/mol.

**Q.** For “SAGGSAGGSAGGMVVRVTKNGTSTEIIVDSEEEAKELLKPLFPDDSEVEIEFVSEEELSSAGGSAGGSAGGS [r10_1167_JUSTAS]”, which “folding stability dG unfold” value is on record?
**A.** The value was 4.03 ± 0.272 kJ/mol.

**Q.** With “SAGGSAGGSEKIIEELKKKFPGLKIDKIEITVKKKKITIELKPPPKVYLTKEELEKKGYKIEKSAGGSAGGS [r12_3_TrROS_Hall]” as the sequence, how does the “folding stability dG unfold” value read?
**A.** The value was 1.88 ± 1.38 kJ/mol.

assay: folding stability dG unfold (combined trypsin and chymotrypsin); higher = more stable
Method in brief: as §1

**Q.** With “SAMTITVPPDVSLEQIAKLLGYPNLKSFTKRKVTPNLTPATLTVPEDPNKVIKVLYRPADNYTEVIVLQSAG [r14_713_JUSTAS]” as the sequence, how does the “folding stability dG unfold” value read?
**A.** Its value is 3.85 ± 0.669 kJ/mol.

**Q.** With “SAGGPATLTFEFPAEDGSRVRVEVTVEEVPFVDPRTGEPVAPFLKVHVKVTVFDEDGEAHEAEFELLSAGGS [r8_474_TrMRF]” as the sequence, how does the “folding stability dG unfold” value read?
**A.** Its value is 15.6 ± 0.502 kJ/mol.

**Q.** For “SAGGSKVEIWIRFGDYWIRITVEPKPNGRKKVSVEVYNPNGEPMWSITFEIDPDGKIKDIDITPMPSAGGSA [r2_260_TrROS]”, which “folding stability dG unfold” value is on record?
**A.** The value was 21 ± 0.544 kJ/mol.

**Q.** Which “folding stability dG unfold” value does the source give for “SEMTAEELAARLAERLAEEHPGEEVTVEIEVEAEVVDEETGETRTVRVTVTLRFRDGKVEVVDVKVEELPSA [r9_361_TrROS_Hall]” here?
**A.** The value was 17.5 ± 0.36 kJ/mol.

**Q.** For “SAGGFWLKNPNGHYIQVNVEVEWEPRRDPDNGKPTWEPKIEINVEVYDPNGEKRPIPEDQAKDLLKKLSAGG [r13_809_TrROS]”, which “folding stability dG unfold” value is on record?
**A.** The value was 5.47 ± 0.46 kJ/mol.

**Q.** With “MRFEFPLEDGGRVEVEMRPLPDGPVVLDVKITLPNGEEITIPFVFPREEFPDMDMEEIARRVVEEAIRLAKS [r1_92_TrMRF]” as the sequence, how does the “folding stability dG unfold” value read?
**A.** The value was 20 ± 0.243 kJ/mol.

**Q.** With “SAEKIYYKVKVKVEIEKDGKPDIELEIEFIVSPEIPPEKVKEFIEKFLKSKGYKIKKIEIETEPIPSLESAG [r14_979_TrMRF]” as the sequence, how does the “folding stability dG unfold” value read?
**A.** Its value is 21.1 ± 1.21 kJ/mol.

**Q.** With “SAGGSAGGSAGGSMYTLLSTENRPDPNSSKPVTTKTYKLPDGSTVVVTEYPDSVEEKPLVSAGGSAGGSAGG [r7_479_JUSTAS]” as the sequence, how does the “folding stability dG unfold” value read?
**A.** The value was 0.76 ± 1.05 kJ/mol.

**Q.** For “SAGGSAGGSMIDDIVEKLKIPPGTRIVFNDGEVKYFDNREDIKEWAKNGYPAEKLKNIVAFPESAGGSAGGS [r12_430_TrMRF]”, which “folding stability dG unfold” value is on record?
**A.** Its value is 1.05 ± 0.502 kJ/mol.

**Q.** With “SAGMKAYIVSVEKNEDGTETIKLKVYFLDKNGKVVETKEITIKKGETIKITFPNGKTITVPAKDLKLVKSAG [r5_137_TrROS_Hall]” as the sequence, how does the “folding stability dG unfold” value read?
**A.** The value was 13.6 ± 0.343 kJ/mol.
